By Kd is commonly meant the constant that tells how readily two partners part at equilibrium. As usually defined, the EC50 is the concentration at which the effect is half-maximal. A lower EC50 goes with greater potency.

Positions count from the first letter of the chain named.

This is an account of results in US20260356924 (published 2026).

One test deals with iPHF (human, UniProt P10636). In words: SPR. Background: SPR reads the build-up and loss of mass on a sensor chip optically.
The next test has as its target ePHF (human, UniProt P10636). The test is described as follows: ELISA.
The next test has as its target wild type tau (human). In words: ELISA.

Sequence of iPHF (P10636 2-758): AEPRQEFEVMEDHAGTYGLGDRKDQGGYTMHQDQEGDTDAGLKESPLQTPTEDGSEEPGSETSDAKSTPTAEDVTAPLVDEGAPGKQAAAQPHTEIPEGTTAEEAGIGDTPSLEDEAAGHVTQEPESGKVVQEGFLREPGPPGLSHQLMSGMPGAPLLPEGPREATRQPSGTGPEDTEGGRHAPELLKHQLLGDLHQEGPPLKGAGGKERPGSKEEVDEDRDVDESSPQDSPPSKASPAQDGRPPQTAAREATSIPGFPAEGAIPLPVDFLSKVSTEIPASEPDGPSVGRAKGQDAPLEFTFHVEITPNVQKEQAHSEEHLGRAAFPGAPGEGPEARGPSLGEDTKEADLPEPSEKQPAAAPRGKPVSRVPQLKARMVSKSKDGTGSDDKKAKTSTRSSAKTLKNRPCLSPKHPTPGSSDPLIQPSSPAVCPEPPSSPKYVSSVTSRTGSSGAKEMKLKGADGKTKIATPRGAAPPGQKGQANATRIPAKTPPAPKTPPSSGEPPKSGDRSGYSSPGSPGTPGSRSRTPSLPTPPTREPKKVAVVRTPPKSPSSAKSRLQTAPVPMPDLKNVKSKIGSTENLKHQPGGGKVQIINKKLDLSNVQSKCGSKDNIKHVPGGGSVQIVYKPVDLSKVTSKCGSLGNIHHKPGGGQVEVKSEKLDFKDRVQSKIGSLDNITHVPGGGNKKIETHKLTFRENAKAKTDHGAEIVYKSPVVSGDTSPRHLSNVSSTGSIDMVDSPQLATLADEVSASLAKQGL
Sequence of ePHF (P10636 2-758): as above
Sequence of wild type tau (human) (P10636 other isoform, or with tags, fused parts or gaps): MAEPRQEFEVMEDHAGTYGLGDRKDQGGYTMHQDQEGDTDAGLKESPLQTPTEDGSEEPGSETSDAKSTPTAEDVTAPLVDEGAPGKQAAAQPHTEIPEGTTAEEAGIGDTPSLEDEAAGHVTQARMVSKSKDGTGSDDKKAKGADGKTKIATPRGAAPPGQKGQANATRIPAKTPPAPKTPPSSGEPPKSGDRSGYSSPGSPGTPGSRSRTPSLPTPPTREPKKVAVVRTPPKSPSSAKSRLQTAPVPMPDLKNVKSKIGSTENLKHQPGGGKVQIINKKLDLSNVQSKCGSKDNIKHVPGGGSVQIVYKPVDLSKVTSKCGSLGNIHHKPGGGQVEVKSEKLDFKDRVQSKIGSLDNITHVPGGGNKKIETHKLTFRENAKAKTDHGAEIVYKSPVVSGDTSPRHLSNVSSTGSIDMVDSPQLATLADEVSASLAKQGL

B1: hV0022 control (antibody, V domains shown)
VH: QVQLQQPGTELVKPGSSVNLSCKASGFTFTRYWMHWVKERPGHGLEWIGNINPNNGGTDFNEKFKNKATLTVHKSSTTVFIQLSSLTSEDSAVYYCARGTGTGAMDYWGQGTSVTVSS
VL: DVVMTQTPLSLPVSLGDQASISCRSSQSLVHNNGITYLYWYLQKPGQSPKLLIYRVSNRFSGVPDRFGGSGSGTDFTLKISRVEAEDLGVYFCFQGTHVPRTFGGGTKLEIK
modifications: immunopurified paired helical filament tau, hyperphosphorylated
For B1, binding with iPHF was characterised by a dissociation constant (Kd) of 16.2 pM.

B2: V0022 control (antibody, V domains shown)
VH: B1 VH
VL: B1 VL
modifications: immunopurified paired helical filament tau, hyperphosphorylated
For B2, in the test with iPHF, the Kd was determined as 16.5 pM.

B3: hV0022 control (antibody, V domains shown)
VH: B1 VH
VL: B1 VL
modifications: enriched paired helical filament tau, hyperphosphorylated
B3: the EC50 in the test with ePHF amounted to 80 pM.

B4: Ab7 (antibody, V domains shown)
VH: QVQLVQSGAEVKKPGASVKVSCKASGFTFTRYWMHWVRERPGHGLEWIGNINPNNGGTDFNEKFKNRVTMTVHKSISTAYMELSSLRSDDSAVYYCARGTGTGAMDYWGQGTLVTVSS
VL: DVVMTQSPLSLPVTLGQPASISCRSSQSLVHNNGITYLYWYQQRPGQSPRLLIYRVSNRFSGVPDRFSGSGSGTDFTLKISRVEAEDVGVYYCFQGTHVPRTFGQGTKLEIK
modifications: immunopurified paired helical filament tau, hyperphosphorylated
Molecule B4 yielded a dissociation constant (Kd) with iPHF of 33.4 pM.

B5: Ab1 (antibody, V domains shown)
VH: QVQLVQSGAEVKKSGASVKVSCKASGFTFTRYWMHWVRQAPGQGLEWIGNINPNNGGTDFNEKFKNRVTLIRDTSTTTVFIQLTSLTSEDSAVYYCARGTGTGAMDYWGQGTLVTVSS
VL: B4 VL with V2I, P12S, L15P, Q42L, R44K, R50Q, L109V
modifications: immunopurified paired helical filament tau, hyperphosphorylated
B5 yielded a Kd with iPHF of 43.4 pM.

B6: Ab2 (antibody, V domains shown)
VH: B4 VH with Q6E, R38K, I48M, M70I, I76A, D89E, S91T, L113T
VL: B4 VL
modifications: enriched paired helical filament tau, hyperphosphorylated
B6 yielded an EC50 with ePHF of 150 pM.

B7: Ab11 (antibody, V domains shown)
VH: QVQLVQSGAEVKKPGASVKVSCKASGFTFTRYWMHWVKERPGQGLEWMGNINPNNGGTDFNEKFKNRVTMTVHKSTSTVFIQLSSLRSEDTAVYYCARGTGTGAMDYWGQGTSVTVSS
VL: B4 VL
modifications: immunopurified paired helical filament tau, hyperphosphorylated
Turning to B7, in the test with iPHF, binding was put at a Kd of 24.9 pM.

B8: Ab8 (antibody, V domains shown)
VH: B5 VH
VL: B4 VL
modifications: enriched paired helical filament tau, hyperphosphorylated
In the test with ePHF, B8 registered an EC50 of 170 pM. That is a sub-nanomolar value.

B9: Ab4 (antibody, V domains shown)
VH: B7 VH
VL: B4 VL with V2I, P12S, L15P, Q42L, R44K, R50Q, L109V
modifications: immunopurified paired helical filament tau, hyperphosphorylated
Turning to B9, the equilibrium dissociation constant (Kd) in the test with iPHF was 35.3 pM.

B10: Ab2 (antibody, V domains shown)
VH: B4 VH with Q6E, R38K, I48M, M70I, I76A, D89E, S91T, L113T
VL: B4 VL
modifications: immunopurified paired helical filament tau, hyperphosphorylated
B10: in the test with iPHF, the Kd was 29.3 pM.

B11: Ab7 (antibody, V domains shown)
VH: B4 VH
VL: B4 VL
modifications: enriched paired helical filament tau, hyperphosphorylated
The molecule B11 registered a half-maximal effective concentration (EC50) with ePHF of 130 pM.

B12: Ab6 (antibody, V domains shown)
VH: B4 VH with Q6E, R38K, I48M, M70I, I76A, D89E, S91T, L113T
VL: B4 VL with V2I, P12S, L15P, Q42L, R44K, R50Q, L109V
modifications: immunopurified paired helical filament tau, hyperphosphorylated
Take B12: binding with iPHF was characterised by a dissociation constant (Kd) of 39.1 pM. That is a picomolar value.

B13: Ab3 (antibody, V domains shown)
VH: B4 VH with Q1E, A16S, R38K, S77T, S85R, R87T, T115S
VL: B4 VL
modifications: enriched paired helical filament tau, hyperphosphorylated
As to B13, a half-maximal effect with ePHF (EC50) was put at 95 pM. This counts as picomolar.

B14: Ab5 (antibody, V domains shown)
VH: B7 VH
VL: B4 VL with V2I, S7T, L11S, S48P, S72A, S81N, Y92F
modifications: immunopurified paired helical filament tau, hyperphosphorylated
In the test with iPHF, B14 came in with a Kd of 24.8 pM.

B15: Ab3 (antibody, V domains shown)
VH: B4 VH with Q1E, A16S, R38K, S77T, S85R, R87T, T115S
VL: B4 VL
modifications: non-phosphorylated recombinant tau
As to B15, in the test with wild type tau, the binding result is on record as “no binding”.

B16: Ab9 (antibody, V domains shown)
VH: B4 VH with Q1E, A16S, R38K, S77T, S85R, R87T, T115S
VL: B4 VL with V2I, P12S, L15P, Q42L, R44K, R50Q, L109V
modifications: enriched paired helical filament tau, hyperphosphorylated
As for B16, in the test with ePHF, the EC50 stood at 100 pM.

B17: Ab11 (antibody, V domains shown)
VH: B7 VH
VL: B4 VL
modifications: non-phosphorylated recombinant tau
Regarding B17, the binding result with wild type tau was “no binding”.

B18: Ab6 (antibody, V domains shown)
VH: B4 VH with Q6E, R38K, I48M, M70I, I76A, D89E, S91T, L113T
VL: B4 VL with V2I, P12S, L15P, Q42L, R44K, R50Q, L109V
modifications: enriched paired helical filament tau, hyperphosphorylated
In turn, B18 returned an EC50 with ePHF of 160 pM.

B19: Ab8 (antibody, V domains shown)
VH: B5 VH
VL: B4 VL
modifications: immunopurified paired helical filament tau, hyperphosphorylated
In the test with iPHF, B19 showed a Kd of 49.6 pM. This counts as picomolar.

B20: Ab1 (antibody, V domains shown)
VH: B5 VH
VL: B4 VL with V2I, P12S, L15P, Q42L, R44K, R50Q, L109V
modifications: enriched paired helical filament tau, hyperphosphorylated
In the test with ePHF, B20 returned an EC50 of 85 pM.

B21: Ab10 (antibody, V domains shown)
VH: B4 VH with Q1E, A16S, R38K, S77T, S85R, R87T, T115S
VL: B4 VL with V2I, S7T, L11S, S48P, S72A, S81N, Y92F
modifications: enriched paired helical filament tau, hyperphosphorylated
In the case of B21, the EC50 with ePHF stood at 140 pM.

B22: Ab5 (antibody, V domains shown)
VH: B7 VH
VL: B4 VL with V2I, S7T, L11S, S48P, S72A, S81N, Y92F
modifications: enriched paired helical filament tau, hyperphosphorylated
In turn, B22 came in with an EC50 with ePHF of 190 pM.

B23: Ab3 (antibody, V domains shown)
VH: B4 VH with Q1E, A16S, R38K, S77T, S85R, R87T, T115S
VL: B4 VL
modifications: immunopurified paired helical filament tau, hyperphosphorylated
For the molecule B23, binding with iPHF was put at a Kd of 32.5 pM.

B24: Ab10 (antibody, V domains shown)
VH: B4 VH with Q1E, A16S, R38K, S77T, S85R, R87T, T115S
VL: B4 VL with V2I, S7T, L11S, S48P, S72A, S81N, Y92F
modifications: immunopurified paired helical filament tau, hyperphosphorylated
For the molecule B24, the affinity in the test with iPHF, expressed as Kd, was 30.4 pM.

B25: Ab9 (antibody, V domains shown)
VH: B4 VH with Q1E, A16S, R38K, S77T, S85R, R87T, T115S
VL: B4 VL with V2I, P12S, L15P, Q42L, R44K, R50Q, L109V
modifications: immunopurified paired helical filament tau, hyperphosphorylated
Take B25: the affinity with iPHF, expressed as Kd, was 44 pM.

B26: Ab4 (antibody, V domains shown)
VH: B7 VH
VL: B4 VL with V2I, P12S, L15P, Q42L, R44K, R50Q, L109V
modifications: enriched paired helical filament tau, hyperphosphorylated
In the test with ePHF, B26 gave an EC50 of 180 pM.

B27: Ab11 (antibody, V domains shown)
VH: B7 VH
VL: B4 VL
modifications: enriched paired helical filament tau, hyperphosphorylated
Consider B27, for which the EC50 with ePHF turned out to be 160 pM.
